{"source": "paper PMC7854603", "about": "“Nucleic acid binding by SAMHD1 contributes to the antiretroviral activity and is enhanced by the GpsN modification”", "key": {"SAMHD1 HD domain WT [1]": {"biological_target": "T1, SAMHD1 HD domain WT (UniProt Q9Y3Z3 114-626)", "T1 sequence (Q9Y3Z3 114-626)": "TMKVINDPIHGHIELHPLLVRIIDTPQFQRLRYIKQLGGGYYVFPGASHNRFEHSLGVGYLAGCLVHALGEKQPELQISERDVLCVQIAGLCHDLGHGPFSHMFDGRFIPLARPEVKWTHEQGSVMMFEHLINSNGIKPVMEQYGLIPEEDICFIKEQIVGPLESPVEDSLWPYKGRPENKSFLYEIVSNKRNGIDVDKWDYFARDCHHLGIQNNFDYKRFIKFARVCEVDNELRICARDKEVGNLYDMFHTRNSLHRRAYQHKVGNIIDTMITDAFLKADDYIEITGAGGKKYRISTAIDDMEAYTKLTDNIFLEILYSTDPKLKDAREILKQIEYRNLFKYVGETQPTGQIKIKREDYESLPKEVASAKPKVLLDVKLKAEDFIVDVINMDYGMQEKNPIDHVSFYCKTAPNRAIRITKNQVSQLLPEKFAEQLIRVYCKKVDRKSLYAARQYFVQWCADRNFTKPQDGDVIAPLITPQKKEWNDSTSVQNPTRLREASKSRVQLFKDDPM", "experiment": "fluorescence anisotropy; FA: 50 mM Tris pH 8, 100 mM NaCl, 5 mM MgCl2, 1 mM TCEP, 50 nM 6FAM-oligo (salt series with KCl 50-150 mM); SEC same buffer; NMR: 50 mM Tris pH 7.5, 150 mM NaCl, 5 mM MgCl2, 10% D2O; temperature not stated", "settings": "protein: recombinant; chain copies: 2; label: 5'-6FAM; single strand"}, "SAMHD1 HD domain WT [2]": {"biological_target": "T1, SAMHD1 HD domain WT", "experiment": "X-ray crystallography; FA: 50 mM Tris pH 8, 100 mM NaCl, 5 mM MgCl2, 1 mM TCEP, 50 nM 6FAM-oligo (salt series with KCl 50-150 mM); SEC same buffer; NMR: 50 mM Tris pH 7.5, 150 mM NaCl, 5 mM MgCl2, 10% D2O; temperature not stated", "settings": "protein: recombinant; chain copies: 2; single strand"}, "SAMHD1 HD domain WT [3]": {"biological_target": "T1, SAMHD1 HD domain WT", "experiment": "fluorescence anisotropy; tolerant to increasing salt (from 50 mM KCl); FA: 50 mM Tris pH 8, 100 mM NaCl, 5 mM MgCl2, 1 mM TCEP, 50 nM 6FAM-oligo (salt series with KCl 50-150 mM); SEC same buffer; NMR: 50 mM Tris pH 7.5, 150 mM NaCl, 5 mM MgCl2, 10% D2O; temperature not stated", "settings": "protein: recombinant; chain copies: 2; label: 5'-6FAM; single strand"}, "SAMHD1 D311A": {"biological_target": "SAMHD1 D311A (UniProt Q9Y3Z3 114-626, D311A)", "sequence (Q9Y3Z3 114-626 D311A)": "as the sequence (Q9Y3Z3 114-626) above, with D198A counted along it", "experiment": "analytical ultracentrifugation; no nucleotides; dimer, S ~6; FA: 50 mM Tris pH 8, 100 mM NaCl, 5 mM MgCl2, 1 mM TCEP, 50 nM 6FAM-oligo (salt series with KCl 50-150 mM); SEC same buffer; NMR: 50 mM Tris pH 7.5, 150 mM NaCl, 5 mM MgCl2, 10% D2O; temperature not stated", "settings": "protein: recombinant; chain copies: 2; label: 5'-6FAM; single strand"}, "SAMHD1 K523A": {"biological_target": "SAMHD1 K523A (UniProt Q9Y3Z3 114-626, K523A)", "sequence (Q9Y3Z3 114-626 K523A)": "as the sequence (Q9Y3Z3 114-626) above, with K410A counted along it", "experiment": "size-exclusion chromatography; 50 uM GTP + 50 uM dTTP; 2-fold higher stoichiometry than D311A; FA: 50 mM Tris pH 8, 100 mM NaCl, 5 mM MgCl2, 1 mM TCEP, 50 nM 6FAM-oligo (salt series with KCl 50-150 mM); SEC same buffer; NMR: 50 mM Tris pH 7.5, 150 mM NaCl, 5 mM MgCl2, 10% D2O; temperature not stated", "settings": "protein: recombinant; chain copies: 2; label: 5'-6FAM; single strand"}, "SAMHD1 R352A": {"biological_target": "SAMHD1 R352A (UniProt Q9Y3Z3 114-626, R352A)", "sequence (Q9Y3Z3 114-626 R352A)": "as the sequence (Q9Y3Z3 114-626) above, with R239A counted along it", "experiment": "size-exclusion chromatography; 50 uM GTP + 50 uM dTTP; 2-fold higher stoichiometry than D311A; FA: 50 mM Tris pH 8, 100 mM NaCl, 5 mM MgCl2, 1 mM TCEP, 50 nM 6FAM-oligo (salt series with KCl 50-150 mM); SEC same buffer; NMR: 50 mM Tris pH 7.5, 150 mM NaCl, 5 mM MgCl2, 10% D2O; temperature not stated", "settings": "protein: recombinant; chain copies: 2; label: 5'-6FAM; single strand"}, "SAMHD1 HD domain WT [4]": {"biological_target": "T1, SAMHD1 HD domain WT", "experiment": "fluorescence anisotropy; no significant difference from d(TG*TTCA); FA: 50 mM Tris pH 8, 100 mM NaCl, 5 mM MgCl2, 1 mM TCEP, 50 nM 6FAM-oligo (salt series with KCl 50-150 mM); SEC same buffer; NMR: 50 mM Tris pH 7.5, 150 mM NaCl, 5 mM MgCl2, 10% D2O; temperature not stated", "settings": "protein: recombinant; chain copies: 2; label: 5'-6FAM; single strand"}, "SAMHD1 HD domain WT [5]": {"biological_target": "T1, SAMHD1 HD domain WT", "experiment": "fluorescence anisotropy; FA: 50 mM Tris pH 8, 100 mM NaCl, 5 mM MgCl2, 1 mM TCEP, 50 nM 6FAM-oligo (salt series with KCl 50-150 mM); SEC same buffer; NMR: 50 mM Tris pH 7.5, 150 mM NaCl, 5 mM MgCl2, 10% D2O; temperature not stated", "settings": "protein: recombinant; chain copies: 2; label: 5'-6FAM; single strand", "remark": "listed apart in the source"}}}
{"binder": "TGTTCA (ssDNA, phosphorothioate after G2, pure Sp)", "note": "[6FAM-d(TG*TTCA) Sp]", "values": [{"measurement": "binding signal", "setting": "SAMHD1 HD domain WT [1]", "value": "~0.1 affinity relative to Rp"}]}
{"binder": "CGCCT (ssDNA, phosphorothioate at linkages 1-4, mixed Rp/Sp)", "note": "[d(C*G*C*C*T)]", "values": [{"measurement": "binding result", "setting": "SAMHD1 HD domain WT [2]", "value": "binds"}]}
{"binder": "CGCCU (ssRNA, phosphorothioate at linkages 1-4, mixed Rp/Sp)", "note": "[6FAM-r(C*G*C*C*U)]", "values": [{"measurement": "binding result", "setting": "SAMHD1 HD domain WT [3]", "value": "binds"}]}
{"binder": "TGTTCA (ssDNA, phosphorothioate after G2, pure Rp)", "note": "[6FAM-d(TG*TTCA) Rp]", "values": [{"measurement": "binding signal", "setting": "SAMHD1 HD domain WT [1]", "value": "~10 fold higher affinity than Sp"}]}
{"binder": "CGCCT (ssDNA, phosphorothioate at linkages 1-4, mixed Rp/Sp)", "note": "[6FAM-d(C*G*C*C*T)]", "values": [{"measurement": "binding result", "setting": "SAMHD1 D311A", "value": "binds"}, {"measurement": "binding result", "setting": "SAMHD1 K523A", "value": "binds"}, {"measurement": "binding result", "setting": "SAMHD1 R352A", "value": "binds"}, {"measurement": "binding result", "setting": "SAMHD1 HD domain WT [3]", "value": "binds"}]}
{"binder": "CGCCU (ssRNA)", "note": "[r(CGCCU)]", "values": [{"measurement": "binding result", "setting": "SAMHD1 HD domain WT [2]", "value": "binds"}]}
{"binder": "UGUUCA (ssRNA, phosphorothioate after G2, mixed Rp/Sp)", "note": "[6FAM-r(UG*UUCA)]", "values": [{"measurement": "binding result", "setting": "SAMHD1 HD domain WT [4]", "value": "binds"}]}
{"binder": "CTCCT (ssDNA, phosphorothioate?)", "note": "[6FAM oligo with G replaced by T]", "values": [{"measurement": "binding result", "setting": "SAMHD1 HD domain WT [5]", "value": "no binding"}]}
{"binder": "CACCT (ssDNA, phosphorothioate?)", "note": "[6FAM oligo with G replaced by A]", "values": [{"measurement": "binding result", "setting": "SAMHD1 HD domain WT [5]", "value": "no binding"}]}
